Measured values as given in patent publication US7304127.
Where “and” joins values, the source holds several entries; their conditions need not be identical. Identical values can stand only once.

Molecular target: HIV-1LAI envelope gp120 labeled with radioactive iodine (HIV-1 LAI), P03377
Test: 125I-gp120, peptide array

Row | Binder | counts minus background (counts per 20 min)
1 | GVSHQWKSSEDNSKTFSA (modifications not checked) [STRL33 313-330] | 208 and 306
2 | QWKSSEDNSKTFSASHNV (modifications not checked) [STRL33 317-334] | 464 and 534
3 | AVVHAVFALKARTVTFGV (modifications not checked) [CCR5 129-146] | 34
4 | SEDNSKTFSASHNVEATS (modifications not checked) [STRL33 321-338] | 524 and 434
5 | SKTFSASHNVEATSMFQL (modifications not checked) [STRL33 325-342] | 1520 and 1240
6 | AVFALKARTVTFGVVTSV (modifications not checked) [CCR5 133-150] | 63
7 | LKARTVTFGVVTSVITWV (modifications not checked) [CCR5 137-154] | 74
8 | TVTFGVVTSVITWVVAVF (modifications not checked) [CCR5 141-158] | -25
9 | GVVTSVITWVVAVFASLP (modifications not checked) [CCR5 145-162] | 69
10 | SVITWVVAVFASLPGIIF (modifications not checked) [CCR5 149-166] | 46
11 | WVVAVFASLPGIIFTRSQ (modifications not checked) [CCR5 153-170] | 87
12 | NYYTSEPCQKINVKQIAA (modifications not checked) [CCR5 13-30] | 6
13 | VFASLPGIIFTRSQKEGL (modifications not checked) [CCR5 157-174] | 54
14 | SQKEGLHYTCSSHFPYSQ (modifications not checked) [CCR5 169-186] | 304
15 | GLHYTCSSHFPYSQYQFW (modifications not checked) [CCR5 173-190] | 301
16 | TCSSHFPYSQYQFWKNFQ (modifications not checked) [CCR5 177-194] | 367
17 | HFPYSQYQFWKNFQTLKI (modifications not checked) [CCR5 181-198] | 1010
18 | SQYQFWKNFQTLKIVILG (modifications not checked) [CCR5 185-202] | 1570
19 | FWKNFQTLKIVILGLVLP (modifications not checked) [CCR5 189-206] | 40
20 | FQTLKIVILGLVLPLLVM (modifications not checked) [CCR5 193-210] | 45
21 | SEPCQKINVKQIAARLLP (modifications not checked) [CCR5 17-34] | -44
22 | KIVILGLVLPLLVMVICY (modifications not checked) [CCR5 197-214] | 65

Row | Binder | counts minus background (counts per 20 min)
23 | LPLLVMVICYSGILKTLL (modifications not checked) [CCR5 205-222] | 68
24 | VMVICYSGILKTLLRCRN (modifications not checked) [CCR5 209-226] | -8
25 | CYSGILKTLLRCRNEKKR (modifications not checked) [CCR5 213-230] | 70
26 | ILKTLLRCRNEKKRHRAV (modifications not checked) [CCR5 217-234] | 19
27 | RNEKKRHRAVRLIFTIMI (modifications not checked) [CCR5 225-242] | 23
28 | KRHRAVRLIFTIMIVYFL (modifications not checked) [CCR5 229-246] | 36
29 | AVRLIFTIMIVYFLFWAP (modifications not checked) [CCR5 233-250] | 62
30 | QKINVKQIAARLLPPLYS (modifications not checked) [CCR5 21-38] | 20
31 | FLFWAPYNIVLLLNTFQE (modifications not checked) [CCR5 245-262] | 616
32 | APYNIVLLLNTFQEFFGL (modifications not checked) [CCR5 249-266] | 1960
33 | IVLLLNTFQEFFGLNNCS (modifications not checked) [CCR5 253-270] | 2130
34 | LNTFQEFFGLNNCSSSNR (modifications not checked) [CCR5 257-274] | 293
35 | QEFFGLNNCSSSNRLDQA (modifications not checked) [CCR5 261-278] | 63
36 | GLNNCSSSNRLDQAMQVT (modifications not checked) [CCR5 265-282] | -31
37 | CSSSNRLDQAMQVTETLG (modifications not checked) [CCR5 269-286] | 90
38 | NRLDQAMQVTETLGMTHC (modifications not checked) [CCR5 273-290] | 10
39 | VKQIAARLLPPLYSLVFI (modifications not checked) [CCR5 25-42] | 18
40 | QAMQVTETLGMTHCCINP (modifications not checked) [CCR5 277-294] | 81
41 | VTETLGMTHCCINPIIYA (modifications not checked) [CCR5 281-298] | 15
42 | LGMTHCCINPIIYAFVGE (modifications not checked) [CCR5 285-302] | 282
43 | HCCINPIIYAFVGEKFRN (modifications not checked) [CCR5 289-306] | 200
44 | NPIIYAFVGEKFRNYLLV (modifications not checked) [CCR5 293-310] | 162

Row | Binder | counts minus background (counts per 20 min)
45 | YAFVGEKFRNYLLVFFQK (modifications not checked) [CCR5 297-314] | 596
46 | GEKFRNYLLVFFQKHIAK (modifications not checked) [CCR5 301-318] | 69
47 | RNYLLVFFQKHIAKRFCK (modifications not checked) [CCR5 305-322] | 65
48 | LVFFQKHIAKRFCKCCSI (modifications not checked) [CCR5 309-326] | 76
49 | QKHIAKRFCKCCSIFQQE (modifications not checked) [CCR5 313-330] | 23
50 | AARLLPPLYSLVFIFGFV (modifications not checked) [CCR5 29-46] | 33
51 | AKRFCKCCSIFQQEAPER (modifications not checked) [CCR5 317-334] | 64
52 | CKCCSIFQQEAPERASSV (modifications not checked) [CCR5 321-338] | 53
53 | QEAPERASSVYTRSTGEQ (modifications not checked) [CCR5 329-346] | 84
54 | ERASSVYTRSTGEQEISV (modifications not checked) [CCR5 333-350] | 84
55 | SVYTRSTGEQEISVGL (modifications not checked) [CCR5 337-352] | 47
56 | MEGISIYTSDNYTEEMGS (modifications not checked) [CXCR4 1-18] | 2590
57 | SIYTSDNYTEEMGSGDYD (modifications not checked) [CXCR4 5-22] | 71
58 | SDNYTEEMGSGDYDSMKE (modifications not checked) [CXCR4 9-26] | 43
59 | TEEMGSGDYDSMKEPCFR (modifications not checked) [CXCR4 13-30] | 41
60 | LPPLYSLVFIFGFVGNML (modifications not checked) [CCR5 33-50] | 705
61 | GSGDYDSMKEPCFREENA (modifications not checked) [CXCR4 17-34] | -28
62 | YDSMKEPCFREENANFNK (modifications not checked) [CXCR4 21-38] | 53
63 | KEPCFREENANFNKIFLP (modifications not checked) [CXCR4 25-42] | 252
64 | FREENANFNKIFLPTIYS (modifications not checked) [CXCR4 29-46] | 51
65 | NANFNKIFLPTIYSIIFL (modifications not checked) [CXCR4 33-50] | 173
